The record followed here is PMC3470569, “Probing Subunit-Subunit Interactions in the Yeast Vacuolar ATPase by Peptide Arrays” (PLoS ONE, 2012).

Ends that are not written are not given here. cellulose = not defined here

Common to all, as to assay: peptide or protein array; 20-mer peptides linked at their C-terminal end to cellulose and spotted in duplicate on glass slides; blocked in 2% nonfat milk; purified probe at 4 µM in TBS for 1 hour at 4°C; bound probe detected through MBP or FLAG with HRP-coupled antibody (chemiluminescence); hits by ANOVA (p 0.05, Bonferroni) and HCL in MeV, score of at least 1 in 75% of the spots
What all share (details): both partners purified

Experiment [1] concerns the target maltose binding protein (MBP) only (UniProt P0AEX9 27-396 = MBP).
Experiment [2] deals with T1, full-length subunit H (Vma13p), N-terminal MBP fusion (S. cerevisiae, UniProt P41807 1-478).
T1 construct: V-ATPase subunit H (Vma13p), S. cerevisiae, 478 amino acids; Construct provided by the laboratory of Dr. Patricia Kane; also called MBP-H; source: E. coli, purified (amylose column; ultrafiltration or size exclusion chromatography); not shown: MBP, N-terminal, kept
T1 sequence (looked up): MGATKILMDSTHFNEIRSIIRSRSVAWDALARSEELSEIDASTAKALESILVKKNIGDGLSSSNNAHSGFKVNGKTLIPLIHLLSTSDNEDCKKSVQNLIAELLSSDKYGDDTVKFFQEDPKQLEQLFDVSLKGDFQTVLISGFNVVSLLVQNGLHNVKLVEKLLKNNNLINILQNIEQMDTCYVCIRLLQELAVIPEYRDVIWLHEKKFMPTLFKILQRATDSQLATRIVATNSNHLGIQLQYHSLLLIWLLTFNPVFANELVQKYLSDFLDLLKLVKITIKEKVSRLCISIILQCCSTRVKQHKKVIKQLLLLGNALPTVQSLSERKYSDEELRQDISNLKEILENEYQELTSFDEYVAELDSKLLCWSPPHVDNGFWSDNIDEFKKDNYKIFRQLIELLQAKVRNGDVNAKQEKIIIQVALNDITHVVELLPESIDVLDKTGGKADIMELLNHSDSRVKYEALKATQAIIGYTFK

The target in experiment [3] is T2, subunit E (Vma4p), N-terminal MBP fusion (S. cerevisiae, UniProt P22203 1-233).
T2 construct: V-ATPase subunit E (Vma4p), S. cerevisiae, 233 amino acids; also called MBP-E; source: E. coli, purified (amylose column); not shown: MBP, N-terminal, kept
T2 sequence (looked up): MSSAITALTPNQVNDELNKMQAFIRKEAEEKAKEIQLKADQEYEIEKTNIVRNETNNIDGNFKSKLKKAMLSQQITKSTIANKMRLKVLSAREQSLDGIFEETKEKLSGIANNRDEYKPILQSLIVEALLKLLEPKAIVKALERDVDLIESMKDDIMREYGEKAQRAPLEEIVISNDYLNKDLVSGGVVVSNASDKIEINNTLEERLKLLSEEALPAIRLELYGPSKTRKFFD

Experiment [4] addresses T3, EG heterodimer (untagged subunit E with FLAG-tagged subunit G) (S. cerevisiae, UniProt P22203 1-233; P48836 1-114).
T3 construct: V-ATPase subunit E (Vma4p), S. cerevisiae, tagless; V-ATPase subunit G (Vma10p), S. cerevisiae; also called EG-FLAG; source: E. coli, co-expressed from one bicistronic plasmid, purified (amylose, PreScission cleavage of MBP, DEAE, amylose); not shown: MBP, N-terminal, cleaved; FLAG, N-terminal, kept
T3 sequence (looked up) 1: T2 sequence (looked up)
T3 sequence (looked up) 2: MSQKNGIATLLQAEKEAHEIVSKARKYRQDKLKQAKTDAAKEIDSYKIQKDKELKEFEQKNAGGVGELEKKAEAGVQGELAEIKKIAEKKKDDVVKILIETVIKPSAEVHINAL

The target in experiment [5] is T4, C-terminal domain of subunit H (HCT), N-terminal MBP fusion (S. cerevisiae, UniProt P41807 353-478).
T4 construct: V-ATPase subunit H (Vma13p), S. cerevisiae, C-terminal globular domain 353-478 (126 amino acids); Construct provided by the laboratory of Dr. Patricia Kane; also called MBP-HCT; source: E. coli, purified (amylose column; ultrafiltration or size exclusion chromatography); not shown: MBP, N-terminal, kept
T4 sequence (looked up): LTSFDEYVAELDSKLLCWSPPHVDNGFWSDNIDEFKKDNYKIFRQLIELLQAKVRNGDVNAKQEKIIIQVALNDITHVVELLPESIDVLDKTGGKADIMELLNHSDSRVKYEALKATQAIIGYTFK

The target in experiment [6] is T5, full-length subunit C, N-terminal MBP fusion (S. cerevisiae, UniProt P31412 1-392).
T5 construct: V-ATPase subunit C, S. cerevisiae, 392 amino acids; also called MBP-C; source: E. coli, purified (amylose column); not shown: MBP, N-terminal, kept
T5 sequence (looked up): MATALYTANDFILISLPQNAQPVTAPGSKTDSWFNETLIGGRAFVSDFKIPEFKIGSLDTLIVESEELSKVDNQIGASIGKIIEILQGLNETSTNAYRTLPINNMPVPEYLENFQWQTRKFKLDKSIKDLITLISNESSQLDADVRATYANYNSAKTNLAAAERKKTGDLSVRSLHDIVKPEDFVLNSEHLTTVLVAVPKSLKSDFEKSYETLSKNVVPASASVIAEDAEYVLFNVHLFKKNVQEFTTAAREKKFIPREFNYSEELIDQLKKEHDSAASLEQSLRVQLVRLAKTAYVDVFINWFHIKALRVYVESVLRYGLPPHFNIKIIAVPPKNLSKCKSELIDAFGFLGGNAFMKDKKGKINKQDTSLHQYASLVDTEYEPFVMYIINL

In experiment [7] the target is T1, full-length subunit H (Vma13p), …. The source holds these as a separate data set.
For experiment [8], the target named is T6, subunit G (Vma10p) with FLAG tag (S. cerevisiae, UniProt P48836 1-114).
T6 construct: V-ATPase subunit G (Vma10p), S. cerevisiae, 114 amino acids; also called G-FLAG; FLAG-G; source: E. coli, from the bicistronic MBP-FLAG-G / E construct, purified (amylose, PreScission cleavage of MBP, DEAE, amylose); not shown: MBP, N-terminal, cleaved
T6 sequence (looked up): T3 sequence (looked up) 2

B1: D(111-130) (peptide)
peptide: SYIDPEINDFRLTGLGRGGQ-cellulose
modifications: reading uncertain
notes: The promiscuous, 'sticky' peptide that was detected by most probes including MBP alone; source: synthetic peptide, spotted on glass slide array (Intavis)
For B1, the binding result in experiment [1] is reported as “binds”.

B2: d(151-170) (peptide, UniProt P32366 151-170, looked up)
peptide: TVLVDTPLAPYFKNCFDTAE-cellulose
modifications: reading uncertain
notes: source: synthetic peptide, spotted on glass slide array (Intavis)
For the molecule B2, the binding result in experiment [2] and in experiment [3] was “binds” throughout.

B3: a(281-300) (peptide, UniProt P32563 281-300, looked up)
peptide: LSDLYTVLKTTSTTLESELY-cellulose
modifications: reading uncertain
notes: as for B2
For the molecule B3, the binding result in experiment [3] and in experiment [4] was “binds” in each case.

B4: A(205-224) (peptide, UniProt P17255 205-224, looked up)
peptide: GKKSDFTLYHTWPVRVPRPV-cellulose
modifications: reading uncertain
notes: as for B2
On to B4, for which the binding result in experiment [5] and in experiment [6] was “binds” each time.

B5: F(91-110) (peptide, UniProt P39111 91-110, looked up)
peptide: ILEIPSKDHPYDPEKDSVLK-cellulose
modifications: reading uncertain
notes: V-ATPase subunit F, S. cerevisiae, residues 91-110; source: synthetic peptide, spotted on glass slide array (Intavis)
For B5, the binding result in experiment [7], in experiment [8] and in experiment [4] was “binds” in each case.

B6: a(451-470) (peptide, UniProt P32563 451-470, looked up)
peptide: RGEIFDMAFTGRYIILLMGV-cellulose
modifications: reading uncertain
notes: as for B2
In the case of B6, the binding result in experiment [6] is listed as “binds”.

B7: C(11-30) (peptide, UniProt P31412 11-30, looked up)
peptide: FILISLPQNAQPVTAPGSKT-cellulose
modifications: reading uncertain
notes: V-ATPase subunit C, S. cerevisiae, residues 11-30; source: synthetic peptide, spotted on glass slide array (Intavis)
As for B7, the binding result in experiment [5] and in experiment [6] was “binds” in each case.

B8: B(61-80) (peptide, UniProt P16140 61-80, looked up)
peptide: TVRQGQVLEIRGDRAIVQVF-cellulose
modifications: reading uncertain
notes: V-ATPase subunit B, S. cerevisiae, residues 61-80; source: synthetic peptide, spotted on glass slide array (Intavis)
As for B8, in experiment [6], the binding result is “binds”.

B9: C(181-200) (peptide, UniProt P31412 181-200, looked up)
peptide: PEDFVLNSEHLTTVLVAVPK-cellulose
modifications: reading uncertain
notes: as for B2
As for B9, in experiment [6], the binding result was “binds”.
